The values below are quoted from earlier work in article PMC6824834.

In the data set the target is Glu165 (UniProt position 165, VVVAYEPVWAI). The settings on record: substrate-bound, closed (desolvated) active site.

By pKa is commonly meant the pH at which an ionisable group is half protonated. Turning to “Triosephosphate isomerase (TIM) (Not stated for the quoted values; residue numbering is that of Saccharomyces cerevisiae TIM (yTIM))”, the pKa was more than 6.
